This passage reports Kd results from patent US20200199241A1 (Chugai, published 2020).

Sequences and labels used below:
B1: IgG1-F763 (antibody)
heavy: QVQLQESGPGLVKPSETLSLTCAVSGHSISHDHAWSWVRQPPGEGLEWIGFISYSGITNYNPSLQGRVTISRDNSKNTLYLQMNSLRAEDTAVYYCARSLARTTAMDYWGEGTLVTVSSASTKGPSVFPLAPSSKSTSGGTAALGCLVKDYFPEPVTVSWNSGALTSGVHTFPAVLQSSGLYSLSSVVTVPSSSLGTQTYICNVNHKPSNTKVDKKVEPKSCDKTHTCPPCPAPELRGGPKVFLFPPKPKDTLYISRTPEVTCVVVDVSHEDPEVKFNWYVDGVEVHEAKTKPREEQYNSTYRVVSVLQVLHADWLNGKEYKCKVSNKALPAPIEKTISKAKGQPREPQVYTLPPSRDELTKNQVSLTCLVKGFYPSDIAVEWESNGQPENNYKTTPPVLDSDGSFFLYSKLTVDKSRWQQGNVFSCSVMHEALHYHYTQKSLSLSP
light: not shown
notes: EU numbering; copies: 2 + 2
B2: IgG1-F764 (antibody)
heavy: QVQLQESGPGLVKPSETLSLTCAVSGHSISHDHAWSWVRQPPGEGLEWIGFISYSGITNYNPSLQGRVTISRDNSKNTLYLQMNSLRAEDTAVYYCARSLARTTAMDYWGEGTLVTVSSASTKGPSVFPLAPSSKSTSGGTAALGCLVKDYFPEPVTVSWNSGALTSGVHTFPAVLQSSGLYSLSSVVTVPSSSLGTQTYICNVNHKPSNTKVDKKVEPKSCDKTHTCPPCPAPELLGGDSVFLFPPKPKDTLMISRTPEVTCVVVDVSHEDPEVKFNWYVDGVEVHNAKTKPREEQYNSTYRVVSVLQVLHADWLNGKEYKCKVSNKALPAPIEKTISKAKGQPREPQVYTLPPSRDELTKNQVSLTCLVKGFYPSDIAVEWESNGQPENNYKTTPPVLDSDGSFFLYSKLTVDKSRWQQGNVFSCSVMHEALHYHYTQKSLSLSP
light: not shown
notes: EU numbering; copies: 2 + 2
B3: IgG1-F765 (antibody)
heavy: QVQLQESGPGLVKPSETLSLTCAVSGHSISHDHAWSWVRQPPGEGLEWIGFISYSGITNYNPSLQGRVTISRDNSKNTLYLQMNSLRAEDTAVYYCARSLARTTAMDYWGEGTLVTVSSASTKGPSVFPLAPSSKSTSGGTAALGCLVKDYFPEPVTVSWNSGALTSGVHTFPAVLQSSGLYSLSSVVTVPSSSLGTQTYICNVNHKPSNTKVDKKVEPKSCDKTHTCPPCPAPELLGGDSVFLFPPKPKDTLYISRTPEVTCVVVDVSHEDPEVKFNWYVDGVEVHNAKTKPREEQYNSTYRVVSVLQVEHADWLNGKEYKCKVSNKALPAPIEKTISKAKGQPREPQVYTLPPSRDELTKNQVSLTCLVKGFYPSDIAVEWESNGQPENNYKTTPPVLDSDGSFFLYSKLTVDKSRWQQGNVFSCSVMHEALHYHYTQKSLSLSP
light: not shown
notes: EU numbering; copies: 2 + 2
B4: IgG1-F769 (antibody)
heavy: QVQLQESGPGLVKPSETLSLTCAVSGHSISHDHAWSWVRQPPGEGLEWIGFISYSGITNYNPSLQGRVTISRDNSKNTLYLQMNSLRAEDTAVYYCARSLARTTAMDYWGEGTLVTVSSASTKGPSVFPLAPSSKSTSGGTAALGCLVKDYFPEPVTVSWNSGALTSGVHTFPAVLQSSGLYSLSSVVTVPSSSLGTQTYICNVNHKPSNTKVDKKVEPKSCDKTHTCPPCPAPELLGGPSVFLFPPKPKDTLMISRTPEVTCVVVDVSHEDPEVKFNWYVDGVEVHNAKTKPREEQYNSTYRVVSVLQVEHHDWLNGKEYKCKVSNKALPAPIEKTISKAKGQPREPQVYTLPPSRDELTKNQVSLTCLVKGFYPSDIAVEWESNGQPENNYKTTPPVLDSDGSFFLYSKLTVDKSRWQQGNVFSCSVMHEALHYHYTQKSLSLSP
light: not shown
notes: EU numbering; copies: 2 + 2
B5: IgG1-F766 (antibody)
heavy: QVQLQESGPGLVKPSETLSLTCAVSGHSISHDHAWSWVRQPPGEGLEWIGFISYSGITNYNPSLQGRVTISRDNSKNTLYLQMNSLRAEDTAVYYCARSLARTTAMDYWGEGTLVTVSSASTKGPSVFPLAPSSKSTSGGTAALGCLVKDYFPEPVTVSWNSGALTSGVHTFPAVLQSSGLYSLSSVVTVPSSSLGTQTYICNVNHKPSNTKVDKKVEPKSCDKTHTCPPCPAPELLGGPSVFLFPPKPKDTLMISRTPEVTCVVVDVSHEDPEVKFNWYVDGVEVHNAKTKPREEQYNSTYRVVSVLAVEHADWLNGKEYKCKVSNKALPAPIEKTISKAKGQPREPQVYTLPPSRDELTKNQVSLTCLVKGFYPSDIAVEWESNGQPENNYKTTPPVLDSDGSFFLYSKLTVDKSRWQQGNVFSCSVMHEALHYHYTQKSLSLSP
light: not shown
notes: EU numbering; copies: 2 + 2
B6: IgG1-F771 (antibody)
heavy: QVQLQESGPGLVKPSETLSLTCAVSGHSISHDHAWSWVRQPPGEGLEWIGFISYSGITNYNPSLQGRVTISRDNSKNTLYLQMNSLRAEDTAVYYCARSLARTTAMDYWGEGTLVTVSSASTKGPSVFPLAPSSKSTSGGTAALGCLVKDYFPEPVTVSWNSGALTSGVHTFPAVLQSSGLYSLSSVVTVPSSSLGTQTYICNVNHKPSNTKVDKKVEPKSCDKTHTCPPCPAPELLGGPSVFLFPPKPKDTLYISRTPEVTCVVVDVSHEDPAVKFNWYVDGVEVHNAKTKPREEQYNSTYRVVSVLTVLHQDWLNGKEYKCKVSNKALPAPIEKTISKAKGQPREPQVYTLPPSRDELTKNQVSLTCLVKGFYPSDIAVEWESNGQPENNYKTTPPVLDSDGSFFLYSKLTVDKSRWQQGNVFSCSVMHEALHYHYTQKSLSLSP
light: not shown
notes: EU numbering; copies: 2 + 2
B7: IgG1-F770 (antibody)
heavy: QVQLQESGPGLVKPSETLSLTCAVSGHSISHDHAWSWVRQPPGEGLEWIGFISYSGITNYNPSLQGRVTISRDNSKNTLYLQMNSLRAEDTAVYYCARSLARTTAMDYWGEGTLVTVSSASTKGPSVFPLAPSSKSTSGGTAALGCLVKDYFPEPVTVSWNSGALTSGVHTFPAVLQSSGLYSLSSVVTVPSSSLGTQTYICNVNHKPSNTKVDKKVEPKSCDKTHTCPPCPAPELLGGPSVFLFPPKPKDTLYISRAPEVTCVVVDVSHEDPEVKFNWYVDGVEVHNAKTKPREEQYNSTYRVVSVLTVLHQDWLNGKEYKCKVSNKALPAPIEKTISKAKGQPREPQVYTLPPSRDELTKNQVSLTCLVKGFYPSDIAVEWESNGQPENNYKTTPPVLDSDGSFFLYSKLTVDKSRWQQGNVFSCSVMHEALHYHYTQKSLSLSP
light: not shown
notes: EU numbering; copies: 2 + 2
B8: IgG1-F767 (antibody)
heavy: QVQLQESGPGLVKPSETLSLTCAVSGHSISHDHAWSWVRQPPGEGLEWIGFISYSGITNYNPSLQGRVTISRDNSKNTLYLQMNSLRAEDTAVYYCARSLARTTAMDYWGEGTLVTVSSASTKGPSVFPLAPSSKSTSGGTAALGCLVKDYFPEPVTVSWNSGALTSGVHTFPAVLQSSGLYSLSSVVTVPSSSLGTQTYICNVNHKPSNTKVDKKVEPKSCDKTHTCPPCPAPELLGGPSVFLFPPKPKDTLMISRTPEVTCVVVDVSHEDPEVKFNWYVDGVEVHNAKTKPREEQYNSTYRVVSVLQVEHADWLNGKEYKCKVSNKALPAPIEKTISKAKGQPREPQVYTLPPSRDELTKNQVSLTCLVKGFYPSDIAVEWESNGQPENNYKTTPPVLDSDGSFFLYSKLTVDKSRWQQGNVFSCSVMHEALHYHYTQKSLSLSP
light: not shown
notes: EU numbering; copies: 2 + 2
B9: IgG1-F768 (antibody)
heavy: QVQLQESGPGLVKPSETLSLTCAVSGHSISHDHAWSWVRQPPGEGLEWIGFISYSGITNYNPSLQGRVTISRDNSKNTLYLQMNSLRAEDTAVYYCARSLARTTAMDYWGEGTLVTVSSASTKGPSVFPLAPSSKSTSGGTAALGCLVKDYFPEPVTVSWNSGALTSGVHTFPAVLQSSGLYSLSSVVTVPSSSLGTQTYICNVNHKPSNTKVDKKVEPKSCDKTHTCPPCPAPELLGGPSVFLFPPKPKDTLMISRTPEVTCVVVDVSHEDPEVKFNWYVDGVEVHNAKTKPREEQYNSTYRVVSVLAVEHHDWLNGKEYKCKVSNKALPAPIEKTISKAKGQPREPQVYTLPPSRDELTKNQVSLTCLVKGFYPSDIAVEWESNGQPENNYKTTPPVLDSDGSFFLYSKLTVDKSRWQQGNVFSCSVMHEALHYHYTQKSLSLSP
light: not shown
notes: EU numbering; copies: 2 + 2

T1 sequence (chain, as listed by the source limits assumed, chain 1 of 2): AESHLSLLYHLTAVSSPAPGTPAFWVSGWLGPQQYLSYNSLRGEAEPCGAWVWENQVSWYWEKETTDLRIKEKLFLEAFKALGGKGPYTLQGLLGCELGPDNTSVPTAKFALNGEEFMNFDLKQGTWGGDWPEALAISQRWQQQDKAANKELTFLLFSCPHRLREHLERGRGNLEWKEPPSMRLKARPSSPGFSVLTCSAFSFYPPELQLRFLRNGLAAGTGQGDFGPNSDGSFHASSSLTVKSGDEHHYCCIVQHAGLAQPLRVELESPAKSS
T1 sequence (P61769 21-119 limits assumed, chain 2 of 2): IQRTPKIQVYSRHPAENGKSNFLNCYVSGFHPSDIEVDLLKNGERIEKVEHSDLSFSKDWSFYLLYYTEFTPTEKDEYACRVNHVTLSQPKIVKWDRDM

This test has as its target T1, soluble human FcRn complexed with β2-microglobulin (human, UniProt P61769 21-119, limits assumed).
T1 construct: also called hFcRn
Put plainly: Biacore SPR, pH 7.0.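 Further: test antibodies captured on a Protein L chip with human FcRn flowed over as analyte, KD obtained as the ratio of dissociation to association rate constants.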 Background: In SPR one partner is held on a chip, and binding of the other changes the refractive index at the surface.
For orientation: Kd means the free concentration of one partner at which half of the binding sites on the other are occupied at equilibrium, for simple one-to-one binding. Lower therefore signals a tighter complex. B1 gave a Kd of 35 nM.

The molecule B2 showed a Kd of 630 nM.

For the molecule B3, the Kd turned out to be 85 nM.

In turn, B4 displayed a Kd of 460 nM.

B5 gave a Kd of 600 nM. The Kd values of the last two molecules are within 1.5-fold of each other.

B6: the Kd turned out to be 400 nM.

In turn, B7 gave an equilibrium dissociation constant (Kd) of 500 nM. This Kd and that of the molecule before are within 1.5-fold of each other.

The molecule B8 registered a Kd of 430 nM. The Kd values of the last two molecules are within 1.5-fold of each other.

In turn, B9 yielded a dissociation constant (Kd) of 640 nM.
